Data: patent US20050019758A1 (GlaxoSmithKline, published 2005)
Where a chain is given by its changes, count along the chain named. “And” between values parts separate entries of the source, which are not always exact repeats. Identical values can stand only once. Like-named read-outs stand apart in the source and are kept apart here.

Assays:
[1] = molecular target: T1, F protein of RS Long strain virus (native form, on virus and infected VERO cells) (Respiratory Syncytial Virus, UniProt P12568 26-574); test: cell-based or functional assay
T1 sequence (P12568 26-574): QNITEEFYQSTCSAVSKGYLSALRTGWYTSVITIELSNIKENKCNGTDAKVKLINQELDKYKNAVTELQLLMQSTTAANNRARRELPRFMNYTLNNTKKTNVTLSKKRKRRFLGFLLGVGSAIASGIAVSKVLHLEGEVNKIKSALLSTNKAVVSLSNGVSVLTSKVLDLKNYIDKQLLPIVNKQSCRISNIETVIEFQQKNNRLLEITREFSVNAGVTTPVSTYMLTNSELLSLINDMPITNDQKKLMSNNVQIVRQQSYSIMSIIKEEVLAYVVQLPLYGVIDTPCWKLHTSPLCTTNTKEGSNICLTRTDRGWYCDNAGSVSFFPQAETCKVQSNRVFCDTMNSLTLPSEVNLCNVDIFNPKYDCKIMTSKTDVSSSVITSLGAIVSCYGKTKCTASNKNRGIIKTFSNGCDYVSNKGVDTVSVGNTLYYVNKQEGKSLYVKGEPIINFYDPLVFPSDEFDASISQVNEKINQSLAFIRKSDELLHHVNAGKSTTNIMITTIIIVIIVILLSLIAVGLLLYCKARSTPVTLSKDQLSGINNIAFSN

[2] = molecular target: T1, F protein of RS Long strain virus …; test: cell-based or functional assay; remark: listed apart in the source
[3] = molecular target: T1, F protein of RS Long strain virus …; test: cell-based or functional assay; remark: listed apart in the source
[4] = molecular target: T1, F protein of RS Long strain virus …; test: ELISA on methanol-fixed VERO cells infected with RS Long virus, biotinylated mAb 19B, HRP-streptavidin

B1: mAb 19B (antibody, human IgG1)
VH: QVQLVVESGGGLRPGGSLRLSCAASGTTLSGYTMHWVRQAPGKGLEWVSSITGGSNFINYSDSVKGRFTISRDNAKNSLYLQMNSLTAEDTAVYYCATAPIAPPYFDHWGQGTLVTVSS
light: DIQMTQSPSSLSASVGDRVTITCRATQSVSNFLNWYQQKPGEAPTLLIYDASTSQSGVPSRFSGSGSGMDFSLTISSLQPEDLAMYYCQASINTPLFGGGTRIDMRR
modifications: N-linked carbohydrate at Asn59 in part of the molecules (glycovariant)
notes: Human IgG1, kappa; also called Hu19B; version B
[1]
  Fusion-Inhibition EC50: 2.3 ug/ml and 15.3 nM
  Neutralization EC50: 1.5 µg/mL
[2]
  Fusion-Inhibition Titer EC50: 2.3 µg/mL
[3]
  Fusion-Inhibition Titer EC50: 2.5 µg/mL
[4]
  EC50: 0.034 µg/mL

B2: mAb 19B Fraction A (<5% glycovariant) (antibody, human IgG1)
VH: B1 VH
light: DIQMNFLNWYQQKPGEAPTLLIYDASTSQSGVPSRFSGSGSGMDFSLTISSLQPEDLAMYYCQASINTPLFGGGTRIDMRR
modifications: N-linked carbohydrate at Asn59 in <5% of the preparation
[3]
  Fusion-Inhibition Titer EC50: 1.8 µg/mL

B3: Fab19B (Fab)
VH: B1 VH
light: B2 light
modifications: N-linked carbohydrate at Asn59 in <10% of the preparation (Table 4)
[1]
  Fusion-Inhibition EC50: 0.12 ug/ml and 2.4 nM
[3]
  Fusion-Inhibition Titer EC50: 0.12 µg/mL

B4: mAb 19D (antibody, human IgG1)
VH: B1 VH with N59Q
light: not shown
[1]
  Fusion-Inhibition EC50: 2.6 ug/ml and 17.3 nM

B5: Fab19B Fraction C (99% glycovariant) (Fab)
VH: B1 VH
light: B2 light
modifications: N-linked carbohydrate at Asn59 in 99% of the preparation
[3]
  Fusion-Inhibition Titer EC50: 3.7 µg/mL

B6: Fab19B Fraction A (1% glycovariant) (Fab)
VH: B1 VH
light: B2 light
modifications: N-linked carbohydrate at Asn59 in 1% of the preparation
[3]
  Fusion-Inhibition Titer EC50: 0.89 µg/mL

B7: mAb 19C (antibody, human IgG1)
VH: B1 VH with S61A
light: not shown
[1]
  Fusion-Inhibition EC50: 2.4 ug/ml and 16 nM

B8: mAb 19B Fraction B (40% glycovariant) (antibody, human IgG1)
VH: B1 VH
light: B2 light
modifications: N-linked carbohydrate at Asn59 in 40% of the preparation
[3]
  Fusion-Inhibition Titer EC50: 3.8 µg/mL

B9: Fab19B Fraction B (94% glycovariant) (Fab)
VH: B1 VH
light: B2 light
modifications: N-linked carbohydrate at Asn59 in 94% of the preparation
[3]
  Fusion-Inhibition Titer EC50: 1.5 µg/mL

B10: Fab19 (Fab)
VH: EVQLLEVESGGGLRPGGSLRLSCAASGTTLSGYTMHWVRQAPGKGLEWVSSITGGSNFINYSDSVKGRFTISRDNAKNSLYLQMNSLTAEDTAVYYCATAPIAPPYFDHWGQGTLVTVSS
light: ELTQSPSSLSASVGDRVTITCRATQSVSNFLNWYQQKPGEAPTLLIYDASTSQSGVPSRFSGSGSGMDFSLTISSLQPEDLAMYYCQASINTPLFGGGTRIDMRR
[1]
  Fusion-Inhibition EC50: 0.22 ug/ml and 4.4 nM
  Neutralization EC50: 0.34 µg/mL

B11: mAb 19A (antibody, human IgG1)
VH: B10 VH
light: B10 light
[1]
  Fusion-Inhibition EC50: 18.9 nM and 2.8 ug/ml
  Neutralization EC50: 2.2 µg/mL

B12: Fab19A (Fab)
VH: B10 VH
light: B10 light
[1]
  Fusion-Inhibition EC50: 0.16 ug/ml and 3 nM
